Changes are numbered by the printed parent chain.
B1: MS_M103205H795-SG1/M103202L889-SK1 (antibody, human IgG1, kappa)
heavy: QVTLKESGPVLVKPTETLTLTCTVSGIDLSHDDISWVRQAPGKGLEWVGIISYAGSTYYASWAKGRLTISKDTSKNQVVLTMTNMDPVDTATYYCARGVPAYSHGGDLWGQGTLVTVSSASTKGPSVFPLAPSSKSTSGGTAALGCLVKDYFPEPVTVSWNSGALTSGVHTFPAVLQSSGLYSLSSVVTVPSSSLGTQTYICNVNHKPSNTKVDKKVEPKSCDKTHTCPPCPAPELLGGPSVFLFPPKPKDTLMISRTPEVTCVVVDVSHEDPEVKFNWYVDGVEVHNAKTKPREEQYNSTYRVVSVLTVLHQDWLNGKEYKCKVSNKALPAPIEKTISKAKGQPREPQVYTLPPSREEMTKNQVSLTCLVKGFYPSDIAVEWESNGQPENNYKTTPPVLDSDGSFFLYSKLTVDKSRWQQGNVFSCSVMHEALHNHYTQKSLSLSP
light: DIVMTQSPATLSLSPGERATLSCTSSQSVYHANWLSWFQQKPGQPPKLLIYWASTLAYGVPSRFSGSGSGTDFTLTISSLQPEDAATYYCAGGYGGGRYAFGQGTKVEIKRTVAAPSVFIFPPSDEQLKSGTASVVCLLNNFYPREAKVQWKVDNALQSGNSQESVTEQDSKDSTYSLSSTLTLSKADYEKHKVYACEVTHQGLSSPVTKSFNRGEC
notes: Parent antibody of the Fc variants; heavy chain constant region SG1, light chain M103202L889-SK1; also called MS1032LO06-SG1
B2: M103205H795-MY269/M103202L889-SK1 (antibody, human IgG1, kappa)
heavy: QVTLKESGPVLVKPTETLTLTCTVSGIDLSHDDISWVRQAPGKGLEWVGIISYAGSTYYASWAKGRLTISKDTSKNQVVLTMTNMDPVDTATYYCARGVPAYSHGGDLWGQGTLVTVSSASTKGPSVFPLAPSSKSTSGGTAALGCLVKDYFPEPVTVSWNSGALTSGVHTFPAVLQSSGLYSLSSVVTVPSSSLGTQTYICNVNHKPSNTKVDKKVEPKSCDKTHTCPPCPAPELLMGPSVFLFPPKPKDTLMISRTPEVTCVVVDVSDEDPEVKFNWYVDGVEVHNAKTKPREEQYNSTYRVVSVLTVLHQDWLNGKEYKCKVSNKALPKPIEKTISKAKGQPREPQVYTLPPSREEMTKNQVSLTCLVKGFYPSDIAVEWESNGQPENNYKTTPKVLDSDGSFFLYSKLTVDKSRWQQGNVFSCSVMHEALHNHYTQKSLSLSP
light: B1 light
B3: M103205H795-MY318/M103202L889-SK1 (antibody, human IgG1, kappa)
heavy: B2 heavy with M238L, D270E, K328T, K398M
light: B1 light
B4: M103205H795-MY242/M103202L889-SK1 (antibody, human IgG1, kappa)
heavy: B2 heavy with M238G, P240I
light: B1 light
B5: M103205H795-MY308/M103202L889-SK1 (antibody, human IgG1, kappa)
heavy: B2 heavy with M238T, D270E, K398P
light: B1 light
B6: M103205H795-MY273/M103202L889-SK1 (antibody, human IgG1, kappa)
heavy: B2 heavy with M238L
light: B1 light
B7: M103205H795-MY272/M103202L889-SK1 (antibody, human IgG1, kappa)
heavy: B2 heavy with M238Q
light: B1 light
B8: M103205H795-MY309/M103202L889-SK1 (antibody, human IgG1, kappa)
heavy: B2 heavy with M238T, D270E, K398M
light: B1 light
B9: M103205H795-MY310/M103202L889-SK1 (antibody, human IgG1, kappa)
heavy: B2 heavy with M238T, D270E, K328T, K398P
light: B1 light
B10: M103205H795-MY270/M103202L889-SK1 (antibody, human IgG1, kappa)
heavy: B2 heavy with M238H
light: B1 light
B11: M103205H795-MY006/M103202L889-SK1 (antibody, human IgG1, kappa)
heavy: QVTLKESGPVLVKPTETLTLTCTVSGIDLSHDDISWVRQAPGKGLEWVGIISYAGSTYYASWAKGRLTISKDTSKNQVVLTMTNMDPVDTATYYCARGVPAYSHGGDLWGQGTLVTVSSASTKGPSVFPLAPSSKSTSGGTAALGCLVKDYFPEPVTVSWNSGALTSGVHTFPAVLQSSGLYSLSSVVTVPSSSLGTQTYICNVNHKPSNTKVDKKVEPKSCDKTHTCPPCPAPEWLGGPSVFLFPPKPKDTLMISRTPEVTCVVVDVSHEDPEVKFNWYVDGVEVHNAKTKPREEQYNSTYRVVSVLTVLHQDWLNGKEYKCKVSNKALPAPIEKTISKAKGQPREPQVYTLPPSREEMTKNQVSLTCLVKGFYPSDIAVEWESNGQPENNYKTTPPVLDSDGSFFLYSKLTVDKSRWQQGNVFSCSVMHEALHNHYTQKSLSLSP
light: B1 light
notes: Substitution put into M103205H795-SG1
B12: M103205H795-MY281/M103202L889-SK1 (antibody, human IgG1, kappa)
heavy: B2 heavy with M238Q, Q297L, K398P
light: B1 light
B13: M103205H795-MY274/M103202L889-SK1 (antibody, human IgG1, kappa)
heavy: B2 heavy with M238T
light: B1 light
B14: M103205H795-MY271/M103202L889-SK1 (antibody, human IgG1, kappa)
heavy: B2 heavy with M238V
light: B1 light
B15: M103205H795-MY278/M103202L889-SK1 (antibody, human IgG1, kappa)
heavy: B2 heavy with Q297L, K398P
light: B1 light
B16: M103205H795-MY279/M103202L889-SK1 (antibody, human IgG1, kappa)
heavy: B2 heavy with M238H, Q297L, K398P
light: B1 light
B17: M103205H795-MY293/M103202L889-SK1 (antibody, human IgG1, kappa)
heavy: B2 heavy with M238G, G239Y, D270E, Q297L
light: B1 light
B18: M103205H795-MY321/M103202L889-SK1 (antibody, human IgG1, kappa)
heavy: B2 heavy with M238H, K398M
light: B1 light
B19: M103205H795-MY292/M103202L889-SK1 (antibody, human IgG1, kappa)
heavy: B2 heavy with M238G, G239Y, Q297L, K398M
light: B1 light
B20: M103205H795-MY280/M103202L889-SK1 (antibody, human IgG1, kappa)
heavy: B2 heavy with M238V, Q297L, K398P
light: B1 light
B21: M103205H795-MY311/M103202L889-SK1 (antibody, human IgG1, kappa)
heavy: B2 heavy with M238T, D270E, Q297L, K398P
light: B1 light
B22: M103205H795-MY312/M103202L889-SK1 (antibody, human IgG1, kappa)
heavy: B2 heavy with M238T, D270E, K328T, K398M
light: B1 light
B23: M103205H795-MY276/M103202L889-SK1 (antibody, human IgG1, kappa)
heavy: B2 heavy with M238I
light: B1 light

What was measured:
[1] = molecular target: T1, human FcγRIIIaV extracellular domain, His-tagged (human, UniProt P08637 17-208); assay: SPR, antibody captured, FcgR analyte
T1 construct: also called FcgRIIIaV
Protocol: (§1) The kinetic analysis of interactions between these antibodies and FcγR was carried out using BIACORE® T200 or BIACORE® 4000 (GE Healthcare). HBS-EP+ (GE Healthcare) was used as the running buffer, and the measurement temperature was set to 25° C. A chip produced by immobilizing Protein A. Protein A/G or mouse anti-human IgG kappa light chain (BD Biosciences) onto a Series S Sensor Chip CM4 or CM5 (GE Healthcare) by the amine-coupling method was used. […] After the measurement, the antibody captured on the chip was washed off by allowing reaction with 10 mM glycine-HCl, pH1.5 and 25 mM NaOH so that the chip was regenerated and used repeatedly. The sensorgrams obtained as measurement results were analyzed by the 1:1 Langmuir binding model using the BIACORE® Evaluation Software to calculate the binding rate constant ka (L/mol/s) and dissociation rate constant kd (l/s), and the dissociation constant KD (mol/L) was calculated from these values. […] Regarding such interactions, KD values were calculated using the following 1:1 binding model described in BIACORE® T100 Software Handbook BR1006-48 Edition AE.
(§2) The behavior of interacting molecules according to the 1:1 binding model on BIACORE® can be described by Equation 1: Req=C·R max/(KD+C)+RI, wherein, Req is a plot of steady-state binding levels to analyte concentration. C is concentration, RI is bulk refractive index contribution in the sample, and Rmax is analyte binding capacity of the surface. When this equation is rearranged, KD can be expressed as Equation 2: KD=C·Rmax/(Req−RI)−C. KD can be calculated by substituting the values of Rmax, RI, and C into Equation 1 or Equation 2. From the current measurement conditions, RI=0, C=2 μmol/L can be used.

[2] = molecular target: T2, human FcγRIIb extracellular domain, His-tagged (human, UniProt P31994 43-217); assay: SPR, antibody captured, FcgR analyte
T2 construct: also called FcgRIIb (human)
T2 sequence: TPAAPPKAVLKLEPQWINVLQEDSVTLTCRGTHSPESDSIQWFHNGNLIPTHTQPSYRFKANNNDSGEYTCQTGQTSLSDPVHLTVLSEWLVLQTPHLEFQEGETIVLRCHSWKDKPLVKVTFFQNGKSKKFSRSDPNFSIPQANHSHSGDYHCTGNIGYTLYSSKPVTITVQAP
Protocol: as §1, §2

[3] = molecular target: T3, human FcγRIIaR extracellular domain, His-tagged (human, UniProt P12318 34-217); assay: SPR, antibody captured, FcgR analyte
T3 construct: also called human FcγRIIa (type R); FcgRIIaR
T3 chain: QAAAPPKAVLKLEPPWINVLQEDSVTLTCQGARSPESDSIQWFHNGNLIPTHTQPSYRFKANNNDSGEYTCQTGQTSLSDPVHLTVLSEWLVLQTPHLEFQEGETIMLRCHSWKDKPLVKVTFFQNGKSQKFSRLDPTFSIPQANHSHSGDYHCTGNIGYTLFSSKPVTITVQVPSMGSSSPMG
Protocol: as §1, §2

[4] = molecular target: T4, cynomolgus monkey FcγRIIa2 extracellular domain, His-tagged (cynomolgus monkey); assay: SPR, antibody captured, FcgR analyte
T4 construct: also called cyno FcγRIIa2; cynoFcgRIIa2
T4 chain: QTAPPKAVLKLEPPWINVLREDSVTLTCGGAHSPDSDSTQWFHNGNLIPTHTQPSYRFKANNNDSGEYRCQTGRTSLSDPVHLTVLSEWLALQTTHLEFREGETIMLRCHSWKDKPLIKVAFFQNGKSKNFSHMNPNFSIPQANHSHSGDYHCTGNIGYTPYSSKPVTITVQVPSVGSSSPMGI
Protocol: as §1, §2

[5] = molecular target: T5, cynomolgus monkey FcγRIIa1 extracellular domain, His-tagged (cynomolgus monkey); assay: SPR, antibody captured, FcgR analyte
T5 construct: also called cyno FcγRIIa1; cynoFcgRIIa1
T5 chain: T4 chain with T95P, A121T, K127I, S128A, N130K, N135D, Q142R
Protocol: as §1, §2

[6] = molecular target: T6, human FcγRIIaH extracellular domain, His-tagged (human, UniProt P12318 34-217); assay: SPR, antibody captured, FcgR analyte
T6 construct: also called human FcγRIIa (type H); FcgRIIaH
T6 sequence: T3 chain with R134H
Protocol: as §1, §2

[7] = molecular target: T7, cynomolgus monkey FcγRIIa3 extracellular domain, His-tagged (cynomolgus monkey); assay: SPR, antibody captured, FcgR analyte
T7 construct: also called cyno FcγRIIa3; cynoFcgRIIa3
T7 chain: T4 chain with K127I, N130K, H133P, Q142R
Protocol: as §1, §2

[8] = molecular target: T8, cynomolgus monkey FcγRIIIaS extracellular domain, His-tagged (cynomolgus monkey, UniProt Q8SPW2 21-206 at identity 1.00)); assay: SPR, antibody captured, FcgR analyte
T8 construct: also called cyno FcγRIIIaS; cynoFcγRIIIaS
T8 chain: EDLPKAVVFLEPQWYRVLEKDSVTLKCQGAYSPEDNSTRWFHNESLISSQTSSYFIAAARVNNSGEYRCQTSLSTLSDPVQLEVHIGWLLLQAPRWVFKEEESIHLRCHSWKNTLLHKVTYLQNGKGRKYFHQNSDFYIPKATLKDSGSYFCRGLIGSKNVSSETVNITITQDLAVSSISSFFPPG
Protocol: as §1, §2

[9] = molecular target: T9, human FcγRIIaH extracellular domain, C-terminal His-tag (human, UniProt P12318 34-217); assay: SPR (Biacore), antibody captured, FcgR analyte, 25 C
T9 construct: also called human FcγRIIa (type H); FcgRIIaH; not shown: His-tag added to C-terminus
T9 sequence: T3 chain with R134H

T1 sequence (P08637 17-208 F176V): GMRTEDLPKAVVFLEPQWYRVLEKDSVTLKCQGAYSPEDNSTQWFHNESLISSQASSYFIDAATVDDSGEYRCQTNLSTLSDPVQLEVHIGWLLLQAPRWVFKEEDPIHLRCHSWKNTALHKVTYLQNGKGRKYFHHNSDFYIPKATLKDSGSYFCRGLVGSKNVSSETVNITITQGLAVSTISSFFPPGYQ

| Binder | Kd [9] [nM] | further results |
| --- | --- | --- |
| B1 |  | Kd [1]: 810 nM; Kd [2]: 4600 nM; Kd [3]: 1100 nM; Kd [4]: 5100 nM; Kd [5]: 3200 nM; Kd [6]: 690 nM; Kd [7]: 17000 nM; Kd [8]: 360 nM |
| B2 | 230 |  |
| B3 | 1100 |  |
| B4 | 820 |  |
| B5 | 450 |  |
| B6 | 510 |  |
| B7 | 92 |  |
| B8 | 140 |  |
| B9 | 400 |  |
| B10 | 73 |  |
| B11 |  | Kd [1]: 730 nM; Kd [2]: 2300 nM; Kd [3]: 1800 nM; Kd [4]: 1500 nM; Kd [5]: 2000 nM; Kd [6]: 1300 nM; Kd [7]: 3600 nM; Kd [8]: 320 nM |
| B12 | 130 |  |
| B13 | 8100 |  |
| B14 | 44 |  |
| B15 | 530 |  |
| B16 | 140 |  |
| B17 | 1300 |  |
| B18 | 71 |  |
| B19 | 950 |  |
| B20 | 81 |  |
| B21 | 200 |  |
| B22 | 110 |  |
| B23 | 53 |  |

Source: patent publication US20200317768A1 (published 2020)
